Data: patent US6051224, “Compositions and methods for targeting cells and modulating pulmonary surfactant secretion” (Thomas Jefferson University, dated 2000)

Target: purified recombinant human surfactant protein A (human, UniProt Q8IWL2, 125I radioiodination using chloramine T)
Test: ligand blot of lysogen proteins (SDS-PAGE, PVDF, 125I-SP-A)

binding result: binds
B1: recombinant porcine SP-A recognition protein (SPAR) encoded by the 1.8-kb porcine lung cDNA, expressed from lambda gt11 in E. coli Y1089 (receptor)
chain: MDMCYGMMGSLFRSGSRQTLFASQVMRYADLYAASFINLLYYPFSYLFRAAHVLMPHESTVEHTHVDINEMESPLATRNRTSVDFKDTDYKRHQLTRSISEIKPPNLFPLAPQEITHCHDEDDDEEEEEEEEECGGKPKLSALIKQVLAGLTGAKAVSLWVLVGGGGLHQRYILESFLKTLKYSNHREILVLVFCICTLCSWFRIVRESVSEERKGQAGLNCMQLAPLWFVTLFHHQYIIVYPETRRVVEGPRVKQRQWEEVIQKCYGTNWALTTKTHLFQCIT
